B1: library; numbered along this chain (parent)
chain: MRKPRAAVGSGHRKQAASQEGRQKHAKNNSQAKPSACDGLARQPEEVVLQASVSSYHLFRDVAEVTAFRGSLLSWYDQEKRDLPWRRRAEDEMDLDRRAYAVWVSEVMLQQTQVATVINYYTGWMQKWPTLQDLASASLEEVNQLWAGLGYYSRGRRLQEGARKVVEELGGHMPRTAETLQQLLPGVGRYTAGAIASIAFGQATGVVDGNVARVLCRVRAIGADPSSTLVSQQLWGLAQQLVDPARPGDFNQAAMELGATVCTPQRPLCSQCPVESLCRARQRVEQEQLLASGSLSGSPDVEECAPNTGQCHLCLPPSEPWDQTLGVVNFPRKASRKPPREESSATCVLEQPGALGAQILLVQRPNSGLLAGLWEFPSVTWEPSEQLQRKALLQELQRWAGPLPATHLRHLGEVVHTFSHIKLTYQVYGLALEGQTPVTTVPPGARWLTQEEFHTAAVSTAMKKVFRVYQGQQPGTCMGSKRSQVSSPCSRKKPRMGQQVLDNFFRSHISTDAHSLNSAAQ

Variants of: B1
Assay: 8OG:A repair function score (normalized; synonymous = 0, nonsense = -1) (normalized log-likelihood score); higher = more repair activity (WT-like)
Settings: with 8OG:A DNA repair reporter (GFP) in HEK-293 MUTYH KO cells
In short: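 Per-tile Rosace fitness scores were converted to a normalized repair function score anchored on synonymous and nonsense distributions. That scale puts synonymous medians at 0 and nonsense medians at -1. Variants with starting counts under 300 counts per million were discarded. Input came from sorting viable mCherry+ MUTYH knockout HEK-293 cells, carrying lentiviral MUTYH cDNA NNN codon-scan libraries in 10 pg/ml doxycycline and an 8OG:A GFP repair reporter, into GFP+ and GFP− bins at 72 h, three replicates per tile, followed by tile amplicon sequencing.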
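Note: cells sorted at 72 h after reporter transfection.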

| Variant | 8OG:A repair function score |
| --- | --- |
| Y469C | -0.193 |
| Y469D | -0.955 |
| T436V | -0.079 |
| F200E | -0.847 |
| R60P | -0.0757 |
| H407V | 0.0608 |
| P225W | -0.322 |
| N517D | 0.0077 |
| M173G | -0.965 |
| M173N | -0.945 |
| T112I | -1.18 |
| W85H | -2.53 |
| R332M | -0.332 |
| V165H | -1.11 |
| A520G | 0.00375 |
| L373Y | -0.225 |
| E167W | -0.0936 |
| R495Q | -0.0181 |
| A177I | -0.142 |
| A177C | -0.0436 |
| R491L | -0.00252 |
| S54N | -0.00348 |
| D249L | -0.649 |
| P402E | -0.208 |

| Variant | 8OG:A repair function score |
| --- | --- |
| G186F | -1.04 |
| T455Q | 0.174 |
| A305F | -0.0551 |
| K463F | -0.101 |
| Y151T | -0.587 |
| E382L | 0.0169 |
| T380H | -0.465 |
| S507T | 0.0162 |
| D133F | -0.0791 |
| P404R | 0.163 |
| L134P | -1.26 |
| L290M | -0.0856 |
| F418C | -0.171 |
| P129Q | -0.0447 |
| L355A | 0.00558 |
| L215N | -0.967 |
| S231M | 0.155 |
| R175W | -0.356 |
| G70V | 0.0055 |
| E302G | -0.316 |
| E302C | -0.32 |
| R409Y | -0.0918 |
| Y190M | -0.762 |
| Y190H | -0.198 |

| Variant | 8OG:A repair function score |
| --- | --- |
| T406W | -0.0828 |
| G248I | -1.02 |
| G248M | -0.879 |
| G401K | -0.582 |
| S296P | -0.00535 |
| Q286G | -0.0661 |
| R219C | -0.563 |
| L423Y | -0.0686 |
| Q78D | -0.00768 |
| A51V | 0.0738 |
| P442M | 0.0715 |
| I118Q | -0.0947 |
| P244R | -0.145 |
| P437N | -0.284 |
| S486N | 0.00666 |
| G258C | -1.12 |
| G258D | -1.04 |
| G258P | -1.06 |
| L289N | -0.057 |
| L408I | 0.246 |
| E342T | -0.0198 |
| R98H | -0.232 |
| R98M | -0.316 |
| W399F | -0.284 |

| Variant | 8OG:A repair function score |
| --- | --- |
| Q111K | -0.553 |
| Q111W | -0.869 |
| C272H | -1.32 |
| C272Y | -0.982 |
| D61T | 0.00691 |
| T116L | 0.023 |
| G201E | -0.32 |
| G201K | 0.012 |
| Q126E | 0.0677 |
| T66M | -0.0066 |
| S294W | -0.0117 |
| S294N | 0.0126 |
| A291P | -0.0656 |
| L325T | -0.113 |
| P474I | -0.014 |
| V328E | -0.157 |
| V65R | -0.0229 |
| Q233C | -0.188 |
| V53H | 0.00594 |
| F330M | -0.174 |
| S490A | -0.00415 |
| P316K | -0.0182 |
| P316L | -0.126 |
| G188I | -1.11 |

| Variant | 8OG:A repair function score |
| --- | --- |
| N251A | -0.847 |
| N251P | -1.02 |
| A99D | -3 |
| A137V | -0.325 |
| A137M | -0.417 |
| A137D | -0.219 |
| T263S | -0.0723 |
| R154C | -1.08 |
| R154V | -1.04 |
| D243K | -0.914 |
| T130N | -0.00511 |
| T130H | -0.115 |
| C477F | -0.0432 |
| A400G | -0.0159 |
| A400T | -0.0197 |
| E64R | -0.103 |
| E64D | -0.0139 |
| Y428G | -1.13 |
| A357F | -0.0934 |
| V166G | -0.466 |
| G155Y | -0.667 |
| R506Y | 0.0145 |
| K127T | -0.072 |
| W103T | -0.833 |

| Variant | 8OG:A repair function score |
| --- | --- |
| W103N | -1.2 |
| L360V | -0.666 |
| D94E | -0.625 |
| D94R | -0.182 |
| K493T | 0.0143 |
| E168Q | 0.0147 |
| T460R | -0.0566 |
| P44S | -0.107 |
| L432N | -0.504 |
| A431R | -0.0201 |
| A431M | -0.23 |
| S483T | -0.0473 |
| Q473W | 0.0181 |
| G297E | -0.0194 |
| Q450Y | 0.286 |
| Q450E | 0.156 |
| L83V | -0.316 |
| P331T | -0.351 |
| Q499F | -0.00963 |
| P174T | -0.922 |
| E92G | -0.183 |
| W124P | -0.593 |
| C216V | -0.649 |
| Q358R | 0.137 |

| Variant | 8OG:A repair function score |
| --- | --- |
| Q397L | -0.101 |
| S510A | -0.00841 |
| S510N | -0.0738 |
| A36K | -0.187 |
| A36T | 0.118 |
| Q239E | -0.065 |
| C489W | 0.0227 |
| E341Q | -0.0264 |
| F505R | 0.016 |
| F505Y | 0.00392 |
| T511R | 0.00505 |
| T511A | -0.038 |
| D91W | -0.00643 |
| F376I | -0.775 |
| V274I | -0.0406 |
| H416Q | 0.399 |
| S105W | -0.677 |
| A199G | -0.183 |
| T324K | 0.056 |
| E160I | -0.0174 |
| A445G | -0.0675 |
| W374R | -1.03 |
| L387W | -0.0182 |
